Measured values as given in PMC3288176 (ACS Chemical Biology, 2011).

Molecular target: the molecule itself
Assay: SEC

B1: EcPAPR4cys (enzyme, Escherichia coli)
chain: MSKLDLNALNELPKVDRILALAETNAELEKLDAEGRVAWALDNLPGEYVLSSSFGIQAAVSLHLVNQIRPDIPVILTDTGYLFPETYRFIDELTDKLKLNLKVYRATESAAWQEARYGKLWEQGVEGIEKCCDINKVEPMNRALKELNAQTWFAGLRREQSGSRANLPVLAIQRGVFKVLPIIDWDNRTIYQYLQKHGLKYHPLWDEGYLSVGCTHCTRKWEPGMAEEETRFFGLKRECGLHEG
stoichiometry N: 2
